Test results: article PMC13276077

B1: 15-N601-15 nucleosome -1 meCpG (nucleosome)
DNA 1: ATGGAACACATTGCACAGGATGTATATATCTGACACGTGCCTGGAGACTAGGGAGTAATCCCCTTGGCGGTTAAAACGCGGGGGACAGCGCGTACGTGCGTTTAAGCGGTGCTAGAGCTGTCTACGACCAATTGAGCGGCCTCGGCACCGGGATTCTCCAGGGCGGCCGCGTATT
DNA 2: AATACGCGGCCGCCCTGGAGAATCCCGGTGCCGAGGCCGCTCAATTGGTCGTAGACAGCTCTAGCACCGCTTAAACGCACGTACGCGCTGTCCCCCGCGTTTTAACCGCCAAGGGGATTACTCCCTAGTCTCCAGGCACGTGTCAGATATATACATCCTGTGCAATGTGTTCCAT
modifications: meCpG at -1
B2: 15-N601-15 free DNA -61 meCpG (dsDNA)
DNA 1: ATGGAACACATTGCACAGGATGTATATATCTGACACGTGCCTGGAGACTAGGGAGTAATCCCCTTGGCGGTTAAAACGCGGGGGACAGCGCGTACGTGCGTTTAAGCGGTGCTAGAGCTGTCTACGACCAATTGAGCGGCCTCGGCACCGGGATTCTCCAGGGCGGCCGCGTATT
DNA 2: AATACGCGGCCGCCCTGGAGAATCCCGGTGCCGAGGCCGCTCAATTGGTCGTAGACAGCTCTAGCACCGCTTAAACGCACGTACGCGCTGTCCCCCGCGTTTTAACCGCCAAGGGGATTACTCCCTAGTCTCCAGGCACGTGTCAGATATATACATCCTGTGCAATGTGTTCCAT
modifications: meCpG at -61
B3: 16-N603-30 nucleosome 91 meCpA (nucleosome)
DNA 1: GAGCCACAAAATCACCGACGCTCACGGGTGCCCAGTTCGCGCGCCCACCTACCGTGTGAAGTCGTCACTCGGGCTTCTAAGTACGCTTAGCGCACGGTAGAGCGCAATCCAAGGCTAACCACCGTGCATCGATGTTGAAAGAGGCCCTCCGTCCTTATTACTTCAAGTCCCTGGGGTACCCGTTTCACTGCCA
DNA 2: TGGCAGTGAAACGGGTACCCCAGGGACTTGAAGTAATAAGGACGGAGGGCCTCTTTCAACATCGATGCACGGTGGTTAGCCTTGGATTGCGCTCTACCGTGCGCTAAGCGTACTTAGAAGCCCGAGTGACGACTTCACACGGTAGGTGGGCGCGCGAACTGGGCACCCGTGAGCGTCGGTGATTTTGTGGCTC
modifications: asymmetric meCpA at 91
B4: 16-N603-30 nucleosome 81 meCpA (nucleosome)
DNA 1: GAGCCACAAAATCACCGACGCTCACGGGTGCCCAGTTCGCGCGCCCACCTACCGTGTGAAGTCGTCACTCGGGCTTCTAAGTACGCTTAGCGCACGGTAGAGCGCAATCCAAGGCTAACCACCGTGCATCGATGTTGAAAGAGGCCCTCCGTCCTTATTACTTCAAGTCCCTGGGGTACCCGTTTCACTGCCA
DNA 2: TGGCAGTGAAACGGGTACCCCAGGGACTTGAAGTAATAAGGACGGAGGGCCTCTTTCAACATCGATGCACGGTGGTTAGCCTTGGATTGCGCTCTACCGTGCGCTAAGCGTACTTAGAAGCCCGAGTGACGACTTCACACGGTAGGTGGGCGCGCGAACTGGGCACCCGTGAGCGTCGGTGATTTTGTGGCTC
modifications: asymmetric meCpA at 81
B5: 16-N603-30 free DNA 91 meCpA (dsDNA)
DNA 1: GAGCCACAAAATCACCGACGCTCACGGGTGCCCAGTTCGCGCGCCCACCTACCGTGTGAAGTCGTCACTCGGGCTTCTAAGTACGCTTAGCGCACGGTAGAGCGCAATCCAAGGCTAACCACCGTGCATCGATGTTGAAAGAGGCCCTCCGTCCTTATTACTTCAAGTCCCTGGGGTACCCGTTTCACTGCCA
DNA 2: TGGCAGTGAAACGGGTACCCCAGGGACTTGAAGTAATAAGGACGGAGGGCCTCTTTCAACATCGATGCACGGTGGTTAGCCTTGGATTGCGCTCTACCGTGCGCTAAGCGTACTTAGAAGCCCGAGTGACGACTTCACACGGTAGGTGGGCGCGCGAACTGGGCACCCGTGAGCGTCGGTGATTTTGTGGCTC
modifications: asymmetric meCpA at 91
B6: 16-N603-30 free DNA 81 meCpA (dsDNA)
DNA 1: GAGCCACAAAATCACCGACGCTCACGGGTGCCCAGTTCGCGCGCCCACCTACCGTGTGAAGTCGTCACTCGGGCTTCTAAGTACGCTTAGCGCACGGTAGAGCGCAATCCAAGGCTAACCACCGTGCATCGATGTTGAAAGAGGCCCTCCGTCCTTATTACTTCAAGTCCCTGGGGTACCCGTTTCACTGCCA
DNA 2: TGGCAGTGAAACGGGTACCCCAGGGACTTGAAGTAATAAGGACGGAGGGCCTCTTTCAACATCGATGCACGGTGGTTAGCCTTGGATTGCGCTCTACCGTGCGCTAAGCGTACTTAGAAGCCCGAGTGACGACTTCACACGGTAGGTGGGCGCGCGAACTGGGCACCCGTGAGCGTCGGTGATTTTGTGGCTC
modifications: asymmetric meCpA at 81
B7: 16-N603-30 +91 CG free DNA 91 meCpG (dsDNA)
DNA 1: GAGCCACAAAACCGGCGACGCTCACGGGTGCCCAGTTCGCGCGCCCACCTACCGTGTGAAGTCGTCACTCGGGCTTCTAAGTACGCTTAGCGCACGGTAGAGCGCAATCCAAGGCTAACCACCGTGCATCGATGTTGAAAGAGGCCCTCCGTCCTTATTACTTCAAGTCCCTGGGGTACCCGTTTCACTGCCA
DNA 2: TGGCAGTGAAACGGGTACCCCAGGGACTTGAAGTAATAAGGACGGAGGGCCTCTTTCAACATCGATGCACGGTGGTTAGCCTTGGATTGCGCTCTACCGTGCGCTAAGCGTACTTAGAAGCCCGAGTGACGACTTCACACGGTAGGTGGGCGCGCGAACTGGGCACCCGTGAGCGTCGCCGGTTTTGTGGCTC
modifications: meCpG at 91
B8: 16-N603-30 +81 CG free DNA 81 meCpG (dsDNA)
DNA 1: GAGCCACAAAATCACCGACGCCCGGGGGTGCCCAGTTCGCGCGCCCACCTACCGTGTGAAGTCGTCACTCGGGCTTCTAAGTACGCTTAGCGCACGGTAGAGCGCAATCCAAGGCTAACCACCGTGCATCGATGTTGAAAGAGGCCCTCCGTCCTTATTACTTCAAGTCCCTGGGGTACCCGTTTCACTGCCA
DNA 2: TGGCAGTGAAACGGGTACCCCAGGGACTTGAAGTAATAAGGACGGAGGGCCTCTTTCAACATCGATGCACGGTGGTTAGCCTTGGATTGCGCTCTACCGTGCGCTAAGCGTACTTAGAAGCCCGAGTGACGACTTCACACGGTAGGTGGGCGCGCGAACTGGGCACCCCCGGGCGTCGGTGATTTTGTGGCTC
modifications: meCpG at 81
B9: 15-N601-15 free DNA unmethylated (dsDNA)
DNA 1: ATGGAACACATTGCACAGGATGTATATATCTGACACGTGCCTGGAGACTAGGGAGTAATCCCCTTGGCGGTTAAAACGCGGGGGACAGCGCGTACGTGCGTTTAAGCGGTGCTAGAGCTGTCTACGACCAATTGAGCGGCCTCGGCACCGGGATTCTCCAGGGCGGCCGCGTATT
DNA 2: AATACGCGGCCGCCCTGGAGAATCCCGGTGCCGAGGCCGCTCAATTGGTCGTAGACAGCTCTAGCACCGCTTAAACGCACGTACGCGCTGTCCCCCGCGTTTTAACCGCCAAGGGGATTACTCCCTAGTCTCCAGGCACGTGTCAGATATATACATCCTGTGCAATGTGTTCCAT
B10: 16-N603-30 free DNA unmethylated (dsDNA)
DNA 1: GAGCCACAAAATCACCGACGCTCACGGGTGCCCAGTTCGCGCGCCCACCTACCGTGTGAAGTCGTCACTCGGGCTTCTAAGTACGCTTAGCGCACGGTAGAGCGCAATCCAAGGCTAACCACCGTGCATCGATGTTGAAAGAGGCCCTCCGTCCTTATTACTTCAAGTCCCTGGGGTACCCGTTTCACTGCCA
DNA 2: TGGCAGTGAAACGGGTACCCCAGGGACTTGAAGTAATAAGGACGGAGGGCCTCTTTCAACATCGATGCACGGTGGTTAGCCTTGGATTGCGCTCTACCGTGCGCTAAGCGTACTTAGAAGCCCGAGTGACGACTTCACACGGTAGGTGGGCGCGCGAACTGGGCACCCGTGAGCGTCGGTGATTTTGTGGCTC

Tests used:
[1] = target: MeCP2 full-length, e2 isoform;histone H1.0;histone octamer (Homo sapiens;Homo sapiens;, UniProt P51608;P07305;P0C0S8;P62807;P68431;P62805 1-486;1-194;2-130;2-126;2-136;2-103, ||H2B T115C;H3.1 C96S;C110A); test: EMSA; histone H1.0 pre-bound (chromatosome); 20 mM HEPES pH 7.5, 75 mM NaCl, 125 mM KCl, 50 uM EDTA, 2.5 mM beta-mercaptoethanol, 5% glycerol, BSA, 1.58 uM 47 bp competitor DNA (nucleosome assays); absent w
[2] = target: MeCP2 AT-DIRmut;histone octamer (Homo sapiens;, UniProt P51608;P0C0S8;P62807;P68431;P62805 1-486;2-130;2-126;2-136;2-103, R188G;R190G;K254N;K256N;R268Q|H2B T115C;H3.1 C96S;C110A); test: EMSA; 20 mM HEPES pH 7.5, 75 mM NaCl, 125 mM KCl, 50 uM EDTA, 2.5 mM beta-mercaptoethanol, 5% glycerol, BSA, 1.58 uM 47 bp competitor DNA (nucleosome assays); absent w
[3] = target: MeCP2 MBD;histone octamer (Homo sapiens;, UniProt P51608;P0C0S8;P62807;P68431;P62805 77-167;2-130;2-126;2-136;2-103, |H2B T115C;H3.1 C96S;C110A); test: as above
[4] = target: MeCP2 R133G;histone octamer (Homo sapiens;, UniProt P51608;P0C0S8;P62807;P68431;P62805 1-486;2-130;2-126;2-136;2-103, R133G|H2B T115C;H3.1 C96S;C110A); test: as above
[5] = target: MeCP2 full-length, e2 isoform;histone octamer (Homo sapiens;, UniProt P51608;P0C0S8;P62807;P68431;P62805 1-486;2-130;2-126;2-136;2-103, |H2B T115C;H3.1 C96S;C110A); test: as above
[6] = target: MeCP2 full-length, e2 isoform (Homo sapiens, UniProt P51608 1-486); test: EMSA; 20 mM HEPES pH 7.5, 75 mM NaCl, 125 mM KCl, 50 uM EDTA, 2.5 mM beta-mercaptoethanol, 5% glycerol, BSA, 1.58 uM 47 bp competitor DNA (nucleosome assays; absent with free DNA), room temperature 30 min; conditions: protein: recombinant, tags: none
[7] = target: HisMBP-MeCP2 162-309;histone octamer (Homo sapiens;, UniProt P51608;P0C0S8;P62807;P68431;P62805 162-309;2-130;2-126;2-136;2-103, |H2B T115C;H3.1 C96S;C110A); test: EMSA; 20 mM HEPES pH 7.5, 75 mM NaCl, 125 mM KCl, 50 uM EDTA, 2.5 mM beta-mercaptoethanol, 5% glycerol, BSA, 1.58 uM 47 bp competitor DNA (nucleosome assays); absent w

Binder | Kd [2] [nM] | Kd [3] [nM] | Kd [5] [nM] | Kd ([6]; blunt) [nM] | other results
B1 | 71.3 | 812 | 130 | – | binding result [1]: no binding; Kd [4]: 522 nM
B2 | – | – | – | – | Kd ([6]; label: 5' 6-FAM, blunt): 50.5 ± 1.9 nM
B3 | 25.3 | 85.7 | 57.1 | – | Kd [7]: 103 nM; Kd [4]: 162 nM
B4 | 42.2 | 268 | 65.3 | – | –
B5 | – | – | – | 27.8 ± 1.9 | –
B6 | – | – | – | – | Kd ([6]; label: 5' 6-FAM): 27.1 ± 1.8 nM
B7 | – | – | – | 24.6 ± 1.7 | –
B8 | – | – | – | 23.8 ± 1.2 | –
B9 | – | – | – | – | Kd ([6]; label: 5' 6-FAM, blunt): 75.9 ± 4.2 nM
B10 | – | – | – | – | Kd ([6]; label: 5' 6-FAM): 46.2 ± 2.8 nM
